Laboratory results published in article doi:10.64898/2025.12.01.691523.

Target: Anopheles culicifacies ferritin heavy chain homolog (AcFtnHCH), recombinant, refolded (Anopheles culicifacies)
Test: native gel or EMSA

stoichiometry N: 24
Substance: Anopheles culicifacies ferritin heavy chain homolog (AcFtnHCH), recombinant, refolded (natural protein)
